Columns and labels:
[1] = target: NCp9 (HIV-1) (UniProt P12493); experiment: Trp fluorescence quenching titration
[2] = target: NCp7 (HIV-1) (UniProt P12493); experiment: Trp fluorescence quenching titration
[3] = target: NCp9 (HIV-1) (UniProt P12493); experiment: single-molecule DNA stretching
[4] = target: NCp7 (HIV-1) (UniProt P12493); experiment: single-molecule DNA stretching
[5] = system: NCp15 (HIV-1); experiment: single-molecule DNA stretching
[6] = system: NCp15 (HIV-1); experiment: Trp fluorescence quenching titration
[7] = target: NCp9 (HIV-1) (UniProt P12493); experiment: ethenoA fluorescence enhancement titration; settings: 1,N6-ethenoadenosine homopolymer (RNA)
[8] = target: NCp7 (HIV-1) (UniProt P12493); experiment: ethenoA fluorescence enhancement titration; settings: 1,N6-ethenoadenosine homopolymer (RNA)
[9] = system: NCp15 (HIV-1); experiment: ethenoA fluorescence enhancement titration; settings: 1,N6-ethenoadenosine homopolymer (RNA)

**Q.** What does the source list for 3'LTR/U5 single strand?
**A.** Ka [1]: 6.2e+07 M⁻¹; Ka [2]: 4.3e+07 M⁻¹

**Q.** Which Ka [1] does the source give for 5'LTR/U3 single strand here?
**A.** The Ka was 3.9e+08 M⁻¹.

**Q.** And the Ka [2]?
**A.** Its Ka is 2.2e+08 M⁻¹.

**Q.** Which results are given for lambda-DNA?
**A.** Ka [3]: 1.4e+08 M⁻¹; Ka [4]: 1.22e+08 M⁻¹; Ka [5]: 1.04e+08 M⁻¹

**Q.** What does the source list for poly(dT)?
**A.** Ka [1]: 1.1e+08 M⁻¹; Ka [2]: 9.3e+07 M⁻¹; Ka [6]: 1.4e+09 M⁻¹

**Q.** With poly(etheno-A) as the substance, how does the Ka [7] read?
**A.** Its Ka is 3.8e+09 M⁻¹.

**Q.** And the Ka [8]?
**A.** Its Ka is 1.4e+09 M⁻¹.

**Q.** And the Ka [9]?
**A.** Its Ka is 1.7e+09 M⁻¹.

Reference: paper PMC1356529
